Changes are numbered by the printed parent chain. Where two headings read alike, the source gives them in different places. Blank lines part the entries; values can stand above or below the binder they belong to.
Legend:
Assay in all cases: cell-based or functional assay
[1] = target: T1, IL-18 receptor (IL-18Rα and IL-18Rβ) on HEK-Blue IL-18 cells (UniProt Q13478 19-541; O95256 20-599, limits assumed)
T1 sequence (looked up) 1: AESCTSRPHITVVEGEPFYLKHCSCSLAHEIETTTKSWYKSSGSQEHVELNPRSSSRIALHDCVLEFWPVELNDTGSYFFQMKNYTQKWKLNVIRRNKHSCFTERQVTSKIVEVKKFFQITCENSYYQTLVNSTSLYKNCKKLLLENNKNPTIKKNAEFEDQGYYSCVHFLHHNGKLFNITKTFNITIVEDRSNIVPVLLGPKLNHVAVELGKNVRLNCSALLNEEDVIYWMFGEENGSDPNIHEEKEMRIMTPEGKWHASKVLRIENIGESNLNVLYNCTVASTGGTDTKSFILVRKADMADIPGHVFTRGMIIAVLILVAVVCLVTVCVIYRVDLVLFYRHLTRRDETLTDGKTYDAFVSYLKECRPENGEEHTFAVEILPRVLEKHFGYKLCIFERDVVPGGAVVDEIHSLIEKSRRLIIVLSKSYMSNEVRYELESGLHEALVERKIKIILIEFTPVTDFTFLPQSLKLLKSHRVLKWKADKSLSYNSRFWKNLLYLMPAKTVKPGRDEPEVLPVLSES
T1 sequence (looked up) 2: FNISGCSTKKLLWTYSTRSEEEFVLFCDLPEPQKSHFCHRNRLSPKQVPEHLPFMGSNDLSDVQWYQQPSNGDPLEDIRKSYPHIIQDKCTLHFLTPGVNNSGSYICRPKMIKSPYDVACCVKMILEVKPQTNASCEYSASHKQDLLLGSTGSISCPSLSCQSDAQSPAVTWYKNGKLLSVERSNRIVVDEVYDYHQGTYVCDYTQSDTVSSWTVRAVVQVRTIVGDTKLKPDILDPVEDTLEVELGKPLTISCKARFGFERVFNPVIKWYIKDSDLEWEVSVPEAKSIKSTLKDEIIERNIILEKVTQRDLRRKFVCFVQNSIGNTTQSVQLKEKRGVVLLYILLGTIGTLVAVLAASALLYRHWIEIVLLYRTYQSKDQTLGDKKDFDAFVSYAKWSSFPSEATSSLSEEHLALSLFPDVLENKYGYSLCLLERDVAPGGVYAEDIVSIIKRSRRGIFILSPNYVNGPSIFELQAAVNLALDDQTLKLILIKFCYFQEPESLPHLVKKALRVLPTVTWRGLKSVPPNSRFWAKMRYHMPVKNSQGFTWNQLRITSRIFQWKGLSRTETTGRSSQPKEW

[2] = target: ALK1 / BMPRII receptor pair (BMPR Type I receptor ALK1 and BMPR Type II receptor BMPRII) on cells (UniProt P37023 22-503; Q13873 27-1038, limits assumed)
[3] = target: T1, IL-18 receptor (IL-18Rα and IL-18Rβ) on …; remark: listed apart in the source
[4] = target: T1, IL-18 receptor (IL-18Rα and IL-18Rβ) on …; remark: listed apart in the source

ALK1 / BMPRII receptor pair (BMPR Type I receptor ALK1 and BMPR Type II receptor BMPRII) on cells, sequence (P37023 22-503 limits assumed, chain 1 of 2): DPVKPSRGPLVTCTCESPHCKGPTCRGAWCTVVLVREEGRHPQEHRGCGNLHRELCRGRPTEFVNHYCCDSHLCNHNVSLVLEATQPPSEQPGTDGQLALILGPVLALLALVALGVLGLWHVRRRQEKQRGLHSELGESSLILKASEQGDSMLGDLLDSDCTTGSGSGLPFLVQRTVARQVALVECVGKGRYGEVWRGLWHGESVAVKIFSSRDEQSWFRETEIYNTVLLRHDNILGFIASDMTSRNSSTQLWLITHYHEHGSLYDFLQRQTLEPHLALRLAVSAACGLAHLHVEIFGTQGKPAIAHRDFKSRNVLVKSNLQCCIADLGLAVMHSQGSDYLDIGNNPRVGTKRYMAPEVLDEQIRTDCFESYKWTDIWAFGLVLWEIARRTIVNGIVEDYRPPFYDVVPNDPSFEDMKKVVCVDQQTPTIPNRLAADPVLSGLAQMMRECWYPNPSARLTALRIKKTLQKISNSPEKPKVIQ
ALK1 / BMPRII receptor pair (BMPR Type I receptor ALK1 and BMPR Type II receptor BMPRII) on cells, sequence (Q13873 27-1038 limits assumed, chain 2 of 2): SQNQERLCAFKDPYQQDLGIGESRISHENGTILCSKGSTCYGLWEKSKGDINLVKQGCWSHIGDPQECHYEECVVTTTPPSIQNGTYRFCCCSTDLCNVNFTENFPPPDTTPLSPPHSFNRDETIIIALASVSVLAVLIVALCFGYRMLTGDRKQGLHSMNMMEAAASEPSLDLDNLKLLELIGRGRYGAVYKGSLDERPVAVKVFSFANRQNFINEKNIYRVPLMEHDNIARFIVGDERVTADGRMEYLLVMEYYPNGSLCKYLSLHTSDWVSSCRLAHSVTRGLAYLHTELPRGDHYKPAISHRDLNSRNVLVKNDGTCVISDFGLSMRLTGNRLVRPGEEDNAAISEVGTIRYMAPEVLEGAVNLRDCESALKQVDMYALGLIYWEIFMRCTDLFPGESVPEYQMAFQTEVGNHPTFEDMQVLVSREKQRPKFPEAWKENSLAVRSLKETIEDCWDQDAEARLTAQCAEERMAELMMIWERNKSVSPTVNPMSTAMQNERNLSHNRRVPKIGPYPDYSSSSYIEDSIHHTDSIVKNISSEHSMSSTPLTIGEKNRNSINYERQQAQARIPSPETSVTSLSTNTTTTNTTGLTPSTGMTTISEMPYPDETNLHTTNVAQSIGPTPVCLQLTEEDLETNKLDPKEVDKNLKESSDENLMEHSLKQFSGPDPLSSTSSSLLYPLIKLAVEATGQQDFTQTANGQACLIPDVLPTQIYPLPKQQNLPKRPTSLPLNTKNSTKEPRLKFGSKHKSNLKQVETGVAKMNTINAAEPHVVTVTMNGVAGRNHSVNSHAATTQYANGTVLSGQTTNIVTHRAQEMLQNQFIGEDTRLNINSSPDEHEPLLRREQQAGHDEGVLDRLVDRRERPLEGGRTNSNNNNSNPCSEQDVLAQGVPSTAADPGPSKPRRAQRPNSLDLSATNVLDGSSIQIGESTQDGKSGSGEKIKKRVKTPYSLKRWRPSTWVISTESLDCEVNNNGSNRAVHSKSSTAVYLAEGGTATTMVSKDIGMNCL

B1: DGL222 (bispecific antibody)
chain 1: QVQLVESGGGLVQAGGSLRLSCAASGRTFSKHAMGWFRQAPGKEREFVAAIDWSGGSTYYADSVKGRFTISRDNAKNTVYLQMDSLKPEDTAVYYCAADSYTDYAQLWLPELESEYDYWGQGTLVTVSSEKSYGPPCPPCPAPEAAGAPSVFLFPPKPKDTLMISRTPEVTCVVVDVSHEDPEVKFNWYVDGVEVHNAKTKPREEQYNSTYRVVSVLTVLHQDWLNGKEYKCKVSNKALPAPIEKTISKAKGQPREPQVCTLPPSRDELTKNQVSLSCAVKGFYPSDIAVEWESNGQPENNYKTTPPVLDSDGSFFLVSKLTVDKSRWQQGNVFSCSVMHEALHNHYTQKSLSLSPGWSHPQFEK
chain 2: not shown
HEK-Blue assay, % human IL18 [1]: 44 % human IL18

B2: DGL219 (bispecific antibody)
chain 1: QVQLVESGGGLVQAGGSLRLSCAASGRTFSKHAMGWFRQAPGKEREFVAAIDWSGGSTYYADSVKGRFTISRDNAKNTVYLQMDSLKPEDTAVYYCAADSYTDYAQLWLPELESEYDYWGQGTLVTVSSPLAPDKTHTCPPCPAPEAAGAPSVFLFPPKPKDTLMISRTPEVTCVVVDVSHEDPEVKFNWYVDGVEVHNAKTKPREEQYNSTYRVVSVLTVLHQDWLNGKEYKCKVSNKALPAPIEKTISKAKGQPREPQVCTLPPSRDELTKNQVSLSCAVKGFYPSDIAVEWESNGQPENNYKTTPPVLDSDGSFFLVSKLTVDKSRWQQGNVFSCSVMHEALHNHYTQKSLSLSPGWSHPQFEK
chain 2: not shown
HEK-Blue assay, % human IL18 [1]: 35 % human IL18

B7: DGL218 (bispecific antibody)
chain 1: QVQLVESGGGLVQAGGSLRLSCAASGRTFSKHAMGWFRQAPGKEREFVAAIDWSGGSTYYADSVKGRFTISRDNAKNTVYLQMDSLKPEDTAVYYCAADSYTDYAQLWLPELESEYDYWGQGTLVTVSSCPPCPAPEAAGAPSVFLFPPKPKDTLMISRTPEVTCVVVDVSHEDPEVKFNWYVDGVEVHNAKTKPREEQYNSTYRVVSVLTVLHQDWLNGKEYKCKVSNKALPAPIEKTISKAKGQPREPQVCTLPPSRDELTKNQVSLSCAVKGFYPSDIAVEWESNGQPENNYKTTPPVLDSDGSFFLVSKLTVDKSRWQQGNVFSCSVMHEALHNHYTQKSLSLSPGWSHPQFEK
chain 2: not shown
HEK-Blue assay, % human IL18 [1]: 44 % human IL18

B8: DGL220 (bispecific antibody)
chain 1: QVQLVESGGGLVQAGGSLRLSCAASGRTFSKHAMGWFRQAPGKEREFVAAIDWSGGSTYYADSVKGRFTISRDNAKNTVYLQMDSLKPEDTAVYYCAADSYTDYAQLWLPELESEYDYWGQGTLVTVSSPLAPCPPCPAPEAAGAPSVFLFPPKPKDTLMISRTPEVTCVVVDVSHEDPEVKFNWYVDGVEVHNAKTKPREEQYNSTYRVVSVLTVLHQDWLNGKEYKCKVSNKALPAPIEKTISKAKGQPREPQVCTLPPSRDELTKNQVSLSCAVKGFYPSDIAVEWESNGQPENNYKTTPPVLDSDGSFFLVSKLTVDKSRWQQGNVFSCSVMHEALHNHYTQKSLSLSPGWSHPQFEK
chain 2: not shown
HEK-Blue assay, % human IL18 [1]: 53 % human IL18

B9: DGL093 (bispecific antibody, IgG1)
chain 1: QVQLVESGGGLVQAGGSLRLSCAASGRTFSKHAMGWFRQAPGKEREFVAAIDWSGGSTYYADSVKGRFTISRDNAKNTVYLQMDSLKPEDTAVYYCAADSYTDYAQLWLPELESEYDYWGQGTQVTVSSDKTHTCPPCPAPEAAGGPSVFLFPPKPKDTLMISRTPEVTCVVVDVSHEDPEVKFNWYVDGVEVHNAKTKPREEQYNSTYRVVSVLTVLHQDWLNGKEYKCKVSNKALPAPIEKTISKAKGQPREPQVCTLPPSRDELTKNQVSLSCAVKGFYPSDIAVEWESNGQPENNYKTTPPVLDSDGSFFLVSKLTVDKSRWQQGNVFSCSVMHEALHNHYTQKSLSLSPG
chain 2: not shown
HEK-Blue assay, % hu-IL-18 [3]: 65 % of human IL18 activity

B10: DGL221 (bispecific antibody)
chain 1: QVQLVESGGGLVQAGGSLRLSCAASGRTFSKHAMGWFRQAPGKEREFVAAIDWSGGSTYYADSVKGRFTISRDNAKNTVYLQMDSLKPEDTAVYYCAADSYTDYAQLWLPELESEYDYWGQGTLVTVSSGGGGSGGGGSGGGGSGGGGSCPPCPAPEAAGAPSVFLFPPKPKDTLMISRTPEVTCVVVDVSHEDPEVKFNWYVDGVEVHNAKTKPREEQYNSTYRVVSVLTVLHQDWLNGKEYKCKVSNKALPAPIEKTISKAKGQPREPQVCTLPPSRDELTKNQVSLSCAVKGFYPSDIAVEWESNGQPENNYKTTPPVLDSDGSFFLVSKLTVDKSRWQQGNVFSCSVMHEALHNHYTQKSLSLSPGWSHPQFEK
chain 2: not shown
HEK-Blue assay, % human IL18 [1]: 19 % human IL18

B11: DGL217 (bispecific antibody)
chain 1: QVQLVESGGGLVQAGGSLRLSCAASGRTFSKHAMGWFRQAPGKEREFVAAIDWSGGSTYYADSVKGRFTISRDNAKNTVYLQMDSLKPEDTAVYYCAADSYTDYAQLWLPELESEYDYWGQGTLVTVSSDKTHTCPPCPAPEAAGAPSVFLFPPKPKDTLMISRTPEVTCVVVDVSHEDPEVKFNWYVDGVEVHNAKTKPREEQYNSTYRVVSVLTVLHQDWLNGKEYKCKVSNKALPAPIEKTISKAKGQPREPQVCTLPPSRDELTKNQVSLSCAVKGFYPSDIAVEWESNGQPENNYKTTPPVLDSDGSFFLVSKLTVDKSRWQQGNVFSCSVMHEALHNHYTQKSLSLSPGWSHPQFEK
chain 2: QLQLVESGGGLVQAGGSLRLSCAASRSITFSHNVMGWYRQAPGKQRELVASIGSGGSTNYVDSVKGRATISRDNAKKTVYLQMNSLKPEDTAVYYCGVVVGVYRGSLGQGTLVTVSSEKSYGPPCPPCPAPEAAGAPSVFLFPPKPKDTLMISRTPEVTCVVVDVSHEDPEVKFNWYVDGVEVHNAKTKPREEQYNSTYRVVSVLTVLHQDWLNGKEYKCKVSNKALPAPIEKTISKAKGQPREPQVYTLPPCRDELTKNQVSLWCLVKGFYPSDIAVEWESNGQPENNYKTTPPVLDSDGSFFLYSKLTVDKSRWQQGNVFSCSVMHEALHNHYTQKSLSLSPGEPEA
HEK-Blue assay, % human IL18 [4]: 45 % human IL18

Continued, values first:

Agonist activity in DiscoverX assay, % Emax BMP9 [2]: 78 % Emax BMP9
B3: DGL945 (bispecific antibody, human IgG1, lambda)
heavy: EVQLLESGGGLVQPGGSLRLSCAASGFTFSDYYMTWIRQAPGKGLEWVSSISGGSTYYADSRKGRFTISRDNSENTLYLQMNSLRAEDTAVYYCARDFGVAGWFGQYGMDVWGQGTLVTVSSPLAPEVQLLESGGGLVQPGGSLRLSCAASGFTFSSYAMSWVRQAPGKGLEWVANINQDGSEKNYVDSMRGRFTISRDNSKNTLYLQMNSLRAEDTAVYYCAREFDYWGQGTLVTVSSASTKGPSVFPLAPSSKSTSGGTAALGCLVKDYFPEPVTVSWNSGALTSGVHTFPAVLQSSGLYSLSSVVTVPSSSLGTQTYICNVNHKPSNTKVDKKVEPKSCDKTHTCPPCPAPEAAGAPSVFLFPPKPKDTLYITREPEVTCVVVDVSHEDPEVKFNWYVDGVEVHNAKTKPREEQYNSTYRVVSVLTVLHQDWLNGKEYKCKVSNKALPAPIEKTISKAKGQPREPQVYTLPPSRDELTKNQVSLTCLVKGFYPSDIAVEWESNGQPENNYKTTPPVLDSDGSFFLYSKLTVDKSRWQQGNVFSCSVMHEALHNHYTQKSLSLSPG
light: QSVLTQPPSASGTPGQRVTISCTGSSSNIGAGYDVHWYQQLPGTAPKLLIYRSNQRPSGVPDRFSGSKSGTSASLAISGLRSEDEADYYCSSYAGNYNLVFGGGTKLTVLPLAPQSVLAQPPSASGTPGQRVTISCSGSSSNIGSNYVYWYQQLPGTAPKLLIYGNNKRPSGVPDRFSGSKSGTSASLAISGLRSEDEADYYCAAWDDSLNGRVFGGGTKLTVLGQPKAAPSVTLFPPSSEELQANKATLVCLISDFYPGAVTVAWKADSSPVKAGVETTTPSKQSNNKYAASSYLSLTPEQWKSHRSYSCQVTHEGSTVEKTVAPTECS

Agonist activity in DiscoverX assay, % Emax BMP9 [2]: 78 % Emax BMP9
B4: DGL1146 (bispecific antibody, human IgG1, lambda)
heavy: B3 heavy with Y374M, T376S, E378T, M550L, N556S
light: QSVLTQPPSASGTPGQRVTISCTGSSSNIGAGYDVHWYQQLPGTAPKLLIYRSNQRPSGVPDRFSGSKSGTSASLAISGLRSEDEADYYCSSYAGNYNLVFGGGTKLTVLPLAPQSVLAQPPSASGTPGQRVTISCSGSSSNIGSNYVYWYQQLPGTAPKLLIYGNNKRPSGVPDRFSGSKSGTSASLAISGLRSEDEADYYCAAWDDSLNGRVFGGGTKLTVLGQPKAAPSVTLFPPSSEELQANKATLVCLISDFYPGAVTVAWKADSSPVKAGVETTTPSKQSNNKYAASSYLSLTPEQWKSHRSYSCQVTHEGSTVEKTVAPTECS

Agonist activity in DiscoverX assay, % Emax BMP9 [2]: 42 % Emax BMP9
B5: DGL949 (bispecific antibody, human IgG1, lambda)
heavy: B3 heavy with T35N, R62V, Q106Y, A159W, N178K, Y228F
light: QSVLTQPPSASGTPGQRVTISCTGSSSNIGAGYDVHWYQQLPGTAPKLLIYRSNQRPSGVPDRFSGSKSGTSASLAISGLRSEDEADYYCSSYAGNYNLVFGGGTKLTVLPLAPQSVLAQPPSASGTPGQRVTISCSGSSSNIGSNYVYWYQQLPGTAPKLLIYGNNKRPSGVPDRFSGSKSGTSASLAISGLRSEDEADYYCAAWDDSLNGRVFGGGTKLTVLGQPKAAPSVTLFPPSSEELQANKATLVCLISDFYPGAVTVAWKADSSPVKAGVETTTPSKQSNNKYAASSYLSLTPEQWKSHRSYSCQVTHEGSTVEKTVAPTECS

Agonist activity in DiscoverX assay, % Emax BMP9 [2]: 47 % Emax BMP9
B6: DGL947 (bispecific antibody, human IgG1, lambda)
heavy: B3 heavy with T35N, R62V, Y107F, A159W, N185Y, F226Y
light: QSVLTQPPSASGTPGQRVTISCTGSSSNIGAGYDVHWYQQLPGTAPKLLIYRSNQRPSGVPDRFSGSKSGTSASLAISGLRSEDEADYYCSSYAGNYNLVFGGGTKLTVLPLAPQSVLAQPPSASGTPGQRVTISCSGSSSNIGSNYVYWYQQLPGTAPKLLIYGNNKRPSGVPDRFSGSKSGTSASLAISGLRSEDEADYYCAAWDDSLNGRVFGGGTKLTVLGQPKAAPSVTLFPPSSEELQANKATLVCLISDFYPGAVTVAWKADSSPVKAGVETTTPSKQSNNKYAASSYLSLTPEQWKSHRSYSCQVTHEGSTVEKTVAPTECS

— US20240383990A1 (DIAGONAL THERAPEUTICS, published 2024)
